# Assay results: publication PMC3078985
# Molecular target: CLS (C-terminal fragment of human L-selectin with its entire transmembrane and cytoplasmic domains) (human)
# Experiment: AUC
substance,measurement,value
CLS (C-terminal fragment of human L-selectin with its entire transmembrane and cytoplasmic domains) (domain or fragment),pKd (molar fraction units),1.49
